The assay deals with T1, CD70 on human cancer cell lines (A498, ACHN, SK-OV-3, Hs 766T, NCI-H1975, Calu-1, DU 145, SNU-1, MM.1S, HuT78) (human, UniProt P32970 1-193).
T1 sequence (looked up): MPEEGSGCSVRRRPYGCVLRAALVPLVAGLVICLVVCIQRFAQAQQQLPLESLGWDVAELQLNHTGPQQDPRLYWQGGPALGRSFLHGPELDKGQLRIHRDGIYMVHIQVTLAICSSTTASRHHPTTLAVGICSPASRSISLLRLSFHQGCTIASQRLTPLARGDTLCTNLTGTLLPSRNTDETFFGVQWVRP
The assay can be described thus: cell-based or functional assay.

B1: anti-CD70 CAR (CD70B scFv with 41BB), as expressed on the surface of gene-edited human T cells (CTX130; TRAC-/β2M-/CD70-/anti-CD70 CAR+ T cells) (other)
chain: QVQLVQSGAEVKKPGASVKVSCKASGYTFTNYGMNWVRQAPGQGLKWMGWINTYTGEPTYADAFKGRVTMTRDTSISTAYMELSRLRSDDTAVYYCARDYGDYGMDYWGQGTTVTVSSGGGGSGGGGSGGGGSGDIVMTQSPDSLAVSLGERATINCRASKSVSTSGYSFMHWYQQKPGQPPKLLIYLASNLESGVPDRFSGSGSGTDFTLTISSLQAEDVAVYYCQHSREVPWTFGQGTKVEIKSAAAFVPVFLPAKPTTTPAPRPPTPAPTIASQPLSLRPEACRPAAGGAVHTRGLDFACDIYIWAPLAGTCGVLLLSLVITLYCNHRNRKRGRKKLLYIFKQPFMRPVQTTQEEDGCSCRFPEEEEGGCELRVKFSRSADAPAYQQGQNQLYNELNLGRREEYDVLDKRRGRDPEMGGKPRRKNPQEGLYNELQKDKMAEAYSEIGMKGERRRGKGHDGLYQGLSTATKDTYDALHMQALPPR
Consider B1, for which the “cell kill of A498, ACHN, SK-OV-3 and Hs-766T cells by 3X KO CD70 CAR+ T cells, flow cytometry, 24 h, 1:1 effector:target cell ratio” value was above 50%; the “cell kill of A498, ACHN, SK-OV-3 and Hs-766T cells by 3X KO CD70 CAR+ T cells, flow cytometry, 24 h, 4:1 effector:target cell ratio” value is above 60%; the “cell kill of NCI-H1975, Calu-1 and DU 145 cells (medium to low CD70 expression) by 3X KO CD70 CAR+ T cells, flow cytometry, 24 h, 4:1 effector:target cell ratio” value is above 30%; the “cell kill of SKOV-3, Hs-766T and NCI-H1975 cells by 3X KO CD70 CAR+ T cells, flow cytometry, 96 h, 1:1 effector:target cell ratio” value was above 80%. For the same molecule, the “cell lysis of CD70+ A498 cells by TRAC-/β2M-/CD70-/anti-CD70 CAR+ T cells, Cell titer-Glo, 24 h, T cell:A498 ratios 1:1 and 0.5:1” value is above 90%; the “cell lysis of CD70+ A498 cells by TRAC-/β2M-/anti-CD70 CAR+ T cells (2X KO), Cell titer-Glo, 24 h, T cell:A498 ratios 1:1 and 0.5:1” value is below 90%.

Values taken from patent US20230355761A1 (CRISPR THERAPEUTICS, published 2023).
